“And” between values parts separate entries of the source, which are not always exact repeats. Identical values can stand only once.
Tests used:
[1] = target: wildtype Arabidopsis thaliana (At) ProXp-ala (Arabidopsis thaliana); assay: SEC-MALS; Superdex 200 Increase 10/300 GL in 50 mM Hepes pH 6.8, 30 mM KCl, 2 mM DTT, 1 mM MgCl2; 100 μl of 3 mg/ml WT, 6 mg/ml ΔCTD or 1.5 mg/ml CTD injected; self-association
[2] = target: CTD At ProXp-ala (Arabidopsis thaliana); assay: as above

| stoichiometry N [1] | stoichiometry N [2] | Substance |
| --- | --- | --- |
| 2 |  | wildtype Arabidopsis thaliana (At) ProXp-ala (enzyme) |
|  | 2 and 4 | CTD At ProXp-ala (domain or fragment) |

Source: article PMC9425024
